Results on 67 sequences are retold here after the supplement of paper PMC10724198.

The test system of this data set is Saccharomyces cerevisiae. Kind of data set: protein stability index of tFT-peptide fusion (C-terminal peptide) (PSI (0-1 scale)); higher = more stable (slower turnover). The settings on record: temperature: 30 C. The method, then: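 MPS profiling in S. cerevisiae of the yeast C-terminome library: the last 12 aa of each annotated ORF are fused to the C-terminus of a sfGFP-mCherry timer, after a GGGS linker. Cells are FACS-sorted into 8 mCherry/sfGFP bins and deep-sequenced. PSI runs from 0 (unstable) to 1 (stable); wild type and das1Δ backgrounds, two technical replicates each.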

[1] abbreviates: genetic background: das1 deletion.

± gives the standard deviation of the averaged measurements.

Regarding NFKNSSAKSKRS [PKH2 C-terminal 12 aa], the protein stability index is, setting by setting: under setting [1], 0.682 ± 0.014; (genetic background: wild type) 0.695 ± 0.0083.
The corresponding values for NFLNLLSPLPSV [TOM7 C-terminal 12 aa] are 0.72262 ± 0.00027 and 0.6951 ± 0.0031.
The corresponding values for “NGTAKSAQSTTV [YAR019W-A C-terminal 12 aa]” are 0.67513 ± 0.00026 and 0.729 ± 0.016.
Regarding NGWHELALPQSR [SWM1 C-terminal 12 aa], the protein stability index came to 0.74 ± 0.0028 under setting [1] and 0.705 ± 0.021 (genetic background: wild type).
The corresponding values for NIATIASERSRP [YPL102C C-terminal 12 aa] are 0.723 ± 0.046 and 0.683 ± 0.007.
For the sequence NIIGLLSNDEEH [CBP2 C-terminal 12 aa], the protein stability index worked out at 0.6944 ± 0.0063 under setting [1] and 0.6869 ± 0.0018 (genetic background: wild type).
With NKDTMQLFRAYL [CIN2 C-terminal 12 aa], the protein stability index stood at 0.7695 ± 0.0014 under setting [1] and 0.834 ± 0.04 (genetic background: wild type).
With NKPKGPLRKRRT [TWF1 C-terminal 12 aa], the protein stability index was 0.7 ± 0.017 under setting [1] and 0.672 ± 0.011 (genetic background: wild type).
The corresponding values for NKREFIDSLRPH [AIM20 C-terminal 12 aa] are 0.71 ± 0.013 and 0.6774 ± 0.0032.
The corresponding values for NLDGQIHYLQRL [GAL7 C-terminal 12 aa] are 0.706 ± 0.012 and 0.761 ± 0.091.
The corresponding values for NMVNFESEKVNR [YVH1 C-terminal 12 aa] are 0.706 ± 0.02 and 0.662 ± 0.012.
Consider NNDILQNKKLHQ [KIP1 C-terminal 12 aa], for which the protein stability index came out at 0.686 ± 0.034 under setting [1] and 0.712 ± 0.053 (genetic background: wild type).
In the case of NNLHLPGNTGFF [PDC2 C-terminal 12 aa], the protein stability index reads like this: under setting [1], 0.728 ± 0.0081; (genetic background: wild type) 0.712 ± 0.043.
As for NPEATTKPKPRL [PTC5 C-terminal 12 aa], the protein stability index reads like this: under setting [1], 0.752 ± 0.0099; (genetic background: wild type) 0.81 ± 0.049.
The corresponding values for NPNSLPLQPIAN [MSC2 C-terminal 12 aa] are 0.704 ± 0.018 and 0.691 ± 0.015.
Take NRVPKWMKLSKK [UBX4 C-terminal 12 aa]: the protein stability index was 0.676 ± 0.012 under setting [1] and 0.679 ± 0.027 (genetic background: wild type).
The corresponding values for NRVVLVDHNSSS [IRS4 C-terminal 12 aa] are 0.72 ± 0.024 and 0.727 ± 0.069.
Take NSDTIARIATVM [DAS1 C-terminal 12 aa]: the protein stability index is, setting by setting: under setting [1], 0.685 ± 0.011; (genetic background: wild type) 0.595 ± 0.0036.
The corresponding values for NSIISLEALDAI [SMX2 C-terminal 12 aa] are 0.72 ± 0.039 and 0.708 ± 0.022.
The corresponding values for NSNELEYAPTAN [LIA1 C-terminal 12 aa] are 0.686 ± 0.022 and 0.7 ± 0.11.
For NTESSCGFFQWV [APN2 C-terminal 12 aa], the protein stability index turned out to be 0.72737 ± 0.00023 under setting [1] and 0.737 ± 0.02 (genetic background: wild type).
With NTFRKIKGDKKN [MDJ1 C-terminal 12 aa], the protein stability index was found to be 0.687 ± 0.068 under setting [1] and 0.758 ± 0.0081 (genetic background: wild type).
The corresponding values for NTFVLNMSRFII [YDL068W C-terminal 12 aa] are 0.6739 ± 0.003 and 0.365 ± 0.079.
The corresponding values for “NTHDLHLRPGTY [YBL005W-A C-terminal 12 aa]” are 0.6794 ± 0.00083 and 0.708 ± 0.013.
In the case of NTTHYNASLLRQ [PHO5 C-terminal 12 aa], the protein stability index reads like this: under setting [1], 0.688 ± 0.022; (genetic background: wild type) 0.673 ± 0.017.
As to NTVELLNIPLTS [YLR345W C-terminal 12 aa], the protein stability index stood at 0.6555 ± 0.0055 under setting [1] and 0.649 ± 0.0043 (genetic background: wild type).
The corresponding values for PAAIKQAIASNV [TRX2 C-terminal 12 aa] are 0.659 ± 0.0072 and 0.657 ± 0.0098.
The corresponding values for PAAKKVVELTQN [LSC2 C-terminal 12 aa] are 0.685 ± 0.012 and 0.58 ± 0.019.
With PDCTVCSNSNSN [UBA3 C-terminal 12 aa], the protein stability index stood at 0.705 ± 0.0088 under setting [1] and 0.677 ± 0.047 (genetic background: wild type).
The corresponding values for PEGEAPEAFSMK [SEC14 C-terminal 12 aa] are 0.7068 ± 0.0023 and 0.684 ± 0.036.
For PEGGDGPKYTLT [CIR2 C-terminal 12 aa], the protein stability index is, setting by setting: under setting [1], 0.688 ± 0.018; (genetic background: wild type) 0.721 ± 0.016.
As for PEKWSASLKKFK [THI6 C-terminal 12 aa], the protein stability index by setting is: under setting [1], 0.731 ± 0.017; (genetic background: wild type) 0.6854 ± 0.0031.
The corresponding values for PEMDKEKKKFYL [RPF1 C-terminal 12 aa] are 0.724 ± 0.04 and 0.708 ± 0.06.
The corresponding values for PEVIDTRKDNSN [COX11 C-terminal 12 aa] are 0.687 ± 0.012 and 0.696 ± 0.022.
Regarding PFGKKKTGLFSL [PRM10 C-terminal 12 aa], the protein stability index reads like this: under setting [1], 0.723 ± 0.036; (genetic background: wild type) 0.717 ± 0.03.
With PGDTLIEVIDLT [WSS1 C-terminal 12 aa], the protein stability index by setting is: under setting [1], 0.692 ± 0.025; (genetic background: wild type) 0.7105 ± 0.00019.
The corresponding values for “PGLRRQHTRNFL [YMR294W-A C-terminal 12 aa]” are 0.697 ± 0.01 and 0.737 ± 0.042.
For the sequence PHVKLFETTSGL [IRC5 C-terminal 12 aa], the protein stability index is, setting by setting: under setting [1], 0.718 ± 0.021; (genetic background: wild type) 0.712 ± 0.014.
The corresponding values for PKGDIEASIAEE [MPH3 C-terminal 12 aa] are 0.6877 ± 0.00033 and 0.677 ± 0.016.
Consider PKWCSTMCSTAT [YDR445C C-terminal 12 aa], for which the protein stability index by setting is: under setting [1], 0.69 ± 0.03; (genetic background: wild type) 0.743 ± 0.049.
As to “PLCYWHYSADTY [YIL105W-A C-terminal 12 aa]”, the protein stability index is, setting by setting: under setting [1], 0.7217 ± 0.0058; (genetic background: wild type) 0.808 ± 0.039.
The corresponding values for PLITPSGFRSSL [YNR025C C-terminal 12 aa] are 0.707 ± 0.0084 and 0.715 ± 0.025.
The corresponding values for PNLSRANFTRNK [RSA1 C-terminal 12 aa] are 0.695 ± 0.019 and 0.699 ± 0.014.
PPFDFRLLFLLV [YGL165C C-terminal 12 aa]: the protein stability index reads like this: under setting [1], 0.542 ± 0.033; (genetic background: wild type) 0.269 ± 0.0091.
The corresponding values for PTVTRKTPDYFL [PPH22 C-terminal 12 aa] are 0.696 ± 0.0091 and 0.718 ± 0.089.
Take QCNFSYLESNYF [CTS1 C-terminal 12 aa]: the protein stability index under setting [1] came out at 0.689 ± 0.019 and the protein stability index (genetic background: wild type) was 0.749 ± 0.06.
The corresponding values for QFDSENVILSVI [TRS120 C-terminal 12 aa] are 0.716 ± 0.023 and 0.687 ± 0.024.
Take QHDEKPFYKRMF [HXT8 C-terminal 12 aa]: the protein stability index was found to be 0.723 ± 0.026 under setting [1] and 0.666 ± 0.045 (genetic background: wild type).
Take QHLKTHKKHGDF [MSN4 C-terminal 12 aa]: the protein stability index under setting [1] came out at 0.719 ± 0.0085 and the protein stability index (genetic background: wild type) worked out at 0.6983 ± 0.001.
As for QIILQKEGVLDK [KCC4 C-terminal 12 aa], the protein stability index by setting is: under setting [1], 0.704 ± 0.0035; (genetic background: wild type) 0.672 ± 0.0083.
The corresponding values for QKNKKRKFSDTS [RNT1 C-terminal 12 aa] are 0.696 ± 0.019 and 0.701 ± 0.018.
The corresponding values for QLNLVVNGVRLN [YLR379W C-terminal 12 aa] are 0.674 ± 0.021 and 0.655 ± 0.016.
The corresponding values for QMICPSLLGIRN [YHR130C C-terminal 12 aa] are 0.721 ± 0.013 and 0.6986 ± 0.0069.
Take QMRKNMTRTDEK [PKH1 C-terminal 12 aa]: the protein stability index came to 0.671 ± 0.056 under setting [1] and 0.714 ± 0.026 (genetic background: wild type).
Sequence QNNNILNDMRVN [SPT23 C-terminal 12 aa] yielded a protein stability index under setting [1] of 0.669 ± 0.011 and a protein stability index (genetic background: wild type) of 0.689 ± 0.039.
The corresponding values for QQQQQKKESSTA [GIM5 C-terminal 12 aa] are 0.727 ± 0.0087 and 0.7 ± 0.037.
The corresponding values for QRASSRPKERRK [MSB4 C-terminal 12 aa] are 0.711 ± 0.019 and 0.713 ± 0.016.
Sequence QRERINNYISVY [VMA6 C-terminal 12 aa] displayed a protein stability index under setting [1] of 0.352 ± 0.02 and a protein stability index (genetic background: wild type) of 0.388 ± 0.0092.
In the case of QRSKSKRQKRRK [YNG1 C-terminal 12 aa], the protein stability index came out at 0.705 ± 0.017 under setting [1] and 0.652 ± 0.036 (genetic background: wild type).
Turning to QRTRRRMSLYKL [TOS3 C-terminal 12 aa], the protein stability index by setting is: under setting [1], 0.807 ± 0.036; (genetic background: wild type) 0.853 ± 0.03.
In the case of QRVIKPSSALQF [ECM7 C-terminal 12 aa], the protein stability index runs as follows: under setting [1], 0.706 ± 0.01; (genetic background: wild type) 0.682 ± 0.035.
The corresponding values for QSARRQRGSIAM [SDS24 C-terminal 12 aa] are 0.683 ± 0.02 and 0.6657 ± 0.0037.
The corresponding values for QSLKISKKRRRK [ZIP1 C-terminal 12 aa] are 0.734 ± 0.033 and 0.748 ± 0.086.
Consider QSMLDGNSPESV [DCR2 C-terminal 12 aa], for which the protein stability index was found to be 0.6985 ± 0.0053 under setting [1] and 0.693 ± 0.021 (genetic background: wild type).
The corresponding values for QTILKNKKKISQ [GYP6 C-terminal 12 aa] are 0.701 ± 0.049 and 0.6842 ± 0.0023.
The corresponding values for QTVRKLDMDFEV [REV1 C-terminal 12 aa] are 0.735 ± 0.032 and 0.656 ± 0.03.
The corresponding values for QVYYELGQIPFE [MET18 C-terminal 12 aa] are 0.738 ± 0.0075 and 0.71 ± 0.011.
